Laboratory results from publication PMC4352251, “The VieB auxiliary protein negatively regulates the VieSA signal transduction system in Vibrio cholerae” (BMC Microbiology, 2015).

B1: VieA-His6 (response regulator VieA) (natural protein)
chain: MKIMIVEDDRIQATSLKLKLRQLGLDDVILAENGFAALELCNKVGIDLMFCDIRMPQMDGISLLSQLSLQAPKLGVVILSAVEDTILELTHNMCSLAGFAYVDRLPKPYEVEDLQRVVEGFQKQTEPETSHKPAITLTCDEIEQAFLHDHIFNYYQPQFDFRSGAMVGVEALVRYEHPTHGMLSPAVFLPLIEQCGLHEKLFLTVLEKSVSALASIGADLQLSVNISQRNLQHSICDPILAICERYGFPASKLTLEMTEHEVYNGTPTSLANLARLRMYGVGLSIDDFGTGYASLGQLAQLPFTELKIDRSFVHDLATNYKHQQLTNMCLLLAQSLGLHCVVEGVENEETWQYLRQLGVDTCQGYYAAKPMPIAQLSELYTKNRRQCLGCQSMDDGWQILLVDNHMLSATALQKVLNKEENVSKVFVAQDIEQTLHKLRDLPINLLVVESRFLSTISPAAFHELLEPYYRGALLVLHDGLTAEAQEDEPKAIVVKANTLMETSSRILLQAQQSNVRPQAQQEELAQLSERELTVAKMLVEGLTNKEIALQLDINQKTVSTYKTRIMTKLGIKSAMELVRFVTLK
notes: not shown: His6, C-terminal, kept
B2: VieB (wild type, His6 tag removed) (natural protein)
chain: MAVPTFAELKVLIIDDAPIVIASLRSMLLKLGFTDPNIVWSKSPRAAVFMAGRQRFDIFICDYNFGKGLNGKQVFEELKHYKLIKQDAVFVLVTGENSAYVVHSILELKPDEYILKPFNIMTLQERLTNAISRKHALKALYQAERDGDAELGLSLCDELEPFYNDYYFVIQKFRGEFLTQLRRFDHAREVYLETLEHKDFDWAKIGLANALKQTGRQVEATQVIQELLASAPNNVRARVEAASISLCNNSIPEAIHHLQVANQIVPGHSEREWVLANLCLSVGDGASALERYRLYVEINKETYRNNHQMHLNFIRTLLYAARQAESEQRDLWVQEAKSILKGLYDKGQHEDLLAQLELVAAHLAMEEGEFGVSVEILNKIYRAKPFELFEDRYHFTWLLNVMGFDSEFAKCISWCNGTLLNQETDIVLESKVALAKALKEANQEKLQWLEQRYHALCNKQQTIDSLLAIYIEILEKCPTLRTVCMKVVTIFSRYWPTALTESEAERLLKSCHRTIRQLMNEEELQQAQYAELYRKALTFRSRYRLQRTESVEA

Key:
[1] = target: VieS-C (untagged cytoplasmic portion of the sensor kinase VieS) (UniProt O68317); assay: SEC-MALS; Superose12 10/300 GL in Gel Filtration Buffer (25 mM Tris pH 7.5, 100 mM KCl, 1 mM DTT, 5% glycerol); column at 4°C, light scattering at 25°C; self-association of each protein
[2] = target: VieS-C (untagged cytoplasmic portion of the sensor kinase VieS) (UniProt O68317); assay: composition-gradient MALS (CG-MALS)
[3] = target: the molecule itself; assay: SEC-MALS; Superose12 10/300 GL in Gel Filtration Buffer (25 mM Tris pH 7.5, 100 mM KCl, 1 mM DTT, 5% glycerol); column at 4°C, light scattering at 25°C; self-association of each protein

Row | Molecule | stoichiometry N [1] | Kd [2] [nM] | stoichiometry N (VieA-His6 dimer per VieS-C dimer) [2] | stoichiometry N [3] | stoichiometry N (VieB monomer per VieS-C dimer) [2]
1 | VieS-C (untagged cytoplasmic portion of the sensor kinase VieS) (from UniProt O68317 1-1146) (domain or fragment) | 2 | – | – | – | –
2 | B1 | – | 1380 | 1 | 2 | –
3 | B2 | – | 467 | – | – | 1
